Data from PMC3441668.

Target: Bcl-xL (UniProt Q07817)
Test: anti-myc co-IP, Bcl-xL immunoblot
Settings: reference: myc-Rad9 wild type; sites S328

binding against the reference: weaker
Substance: Rad9 (from UniProt Q99638) myc-Rad9 S328A
